# Measurements as given in patent US10429300B2, “Surface plasmon resonance approach to monitor protein-ligand interactions” (The Johns Hopkins University, priority 2015, dated 2019).
# Entries after “also recorded” stand apart in the source; their conditions may differ.
# Key:
# [1] = system: rNav1.2a/Kv2.1 VSD IV paddle chimera; test: Two-electrode voltage-clamp, rNav1.2a/Kv2.1 VSD IV paddle chimera in Xenopus oocytes; type: cell-based, rat
# Excerpt: The DNA sequence of rat (r)Nav1.2a (provided by A. Goldin, University of California, Irvine, Irvine, Calif.), rKv2.1 (provided by K. J. Swartz, National Institutes of Health), and the rNav1.2a/Kv2.1 VSD II or IV chimera was confirmed by automated DNA sequencing, and cRNA was synthesized using T7 polymerase (mMessage mMachine™ kit; Life Technologies) after linearizing the DNA with appropriate restriction enzymes. Channels were expressed in Xenopus oocytes (obtained from Xenopus 1) and studied after a 1-d incubation after cRNA injection (incubated at 17° C. in 96 mM NaCl, 2 mM KCl, 5 mM HEPES, 1 mM MgCl2, 1.8 mM CaCl2, and 50 μg/ml gentamycin, pH 7.6 with NaOH) using two-electrode voltage-clamp recording techniques (OC-725C; Warner Instruments) with a 150-μl recording chamber. Data were filtered at 4 kHz and digitized at 20 kHz using pClamp™ 10 software (Molecular Devices). Microelectrode resistances were 0.5-1.5 MΩ when filled with 3 M KCl. For Kv chimera channel experiments, the external recording solution contained (mM): 50 KCl, 50 NaCl, 5 HEPES, 1 MgCl2, and 0.3 CaCl2, pH 7.6 with NaOH. For rNav1.2a experiments, the external recording solution contained (mM): 100 NaCl, 5 HEPES, 1 MgCl2, and 1.8 CaCl2, pH 7.6 with NaOH. All experiments were performed at ˜22° C. Leak and background conductances, identified by blocking the channel with agitoxin-2 (provided by K. J. Swartz), have been subtracted for all of the Kv channel currents shown. […] Voltage-activation relationships were obtained by measuring tail currents for Kv channels or steady-state currents and calculating conductance for Nav channels, and a single Boltzmann function was fitted to the data according to I/Imax=[1c+cexp(−zF(Vc−cV1/2)/RT)]^−1, where I/Imax is the normalized tail-current amplitude, z is the equivalent charge, V1/2 is the half-activation voltage, F is Faraday's constant, R is the gas constant, and T is temperature in kelvin. For all channels, voltage-activation relationships were recorded in the absence and presence of toxin. The ratio of currents (I/I0) recorded in the presence (I) and absence (I0) of toxin was calculated for voltages typically ranging from −140 to 10 cmV, depending on the construct. […] The apparent equilibrium dissociation constant (apparent KD) for Kv channels was calculated according to KD=((1/(1c−cFu^1/4))c−c1)[toxin], assuming four independent toxin-binding sites per channel. Results are given as mean±SEM unless noted otherwise. Offline data analysis was performed using Clampfit 10™ (Molecular Devices), Origin 8.0™ (OriginLab), and Excel™ (Microsoft). All chemicals were obtained from Sigma-Aldrich.
# Representative sodium currents were elicited by a 50-ms depolarization to a suitable membrane voltage (−20 to −15 mV) before (black) and after toxin addition (green) from a holding voltage of −90 mV. […] For each toxin, K^+ currents were elicited by a 300-ms depolarization to 0 mV from a holding voltage of −90 mV (tail voltage was −60 mV). […] For each toxin, K^+ currents (top) were elicited by a 300-ms depolarization near the foot of the voltage-activation curve (bottom) from a holding voltage of −90 mV.
# [2] = system: rNav1.2a/Kv2.1 VSD II paddle chimera; test: Two-electrode voltage-clamp, rNav1.2a/Kv2.1 VSD II paddle chimera in Xenopus oocytes; type: cell-based, rat
# Sequence of rNav1.2a/Kv2.1 VSD II paddle chimera (P04775 832-856 limits assumed, stated change not applied): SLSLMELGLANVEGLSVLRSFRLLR
# Excerpt: The DNA sequence of rat (r)Nav1.2a (provided by A. Goldin, University of California, Irvine, Irvine, Calif.), rKv2.1 (provided by K. J. Swartz, National Institutes of Health), and the rNav1.2a/Kv2.1 VSD II or IV chimera was confirmed by automated DNA sequencing, and cRNA was synthesized using T7 polymerase (mMessage mMachine™ kit; Life Technologies) after linearizing the DNA with appropriate restriction enzymes. Channels were expressed in Xenopus oocytes (obtained from Xenopus 1) and studied after a 1-d incubation after cRNA injection (incubated at 17° C. in 96 mM NaCl, 2 mM KCl, 5 mM HEPES, 1 mM MgCl2, 1.8 mM CaCl2, and 50 μg/ml gentamycin, pH 7.6 with NaOH) using two-electrode voltage-clamp recording techniques (OC-725C; Warner Instruments) with a 150-μl recording chamber. Data were filtered at 4 kHz and digitized at 20 kHz using pClamp™ 10 software (Molecular Devices). Microelectrode resistances were 0.5-1.5 MΩ when filled with 3 M KCl. For Kv chimera channel experiments, the external recording solution contained (mM): 50 KCl, 50 NaCl, 5 HEPES, 1 MgCl2, and 0.3 CaCl2, pH 7.6 with NaOH. For rNav1.2a experiments, the external recording solution contained (mM): 100 NaCl, 5 HEPES, 1 MgCl2, and 1.8 CaCl2, pH 7.6 with NaOH. All experiments were performed at ˜22° C. Leak and background conductances, identified by blocking the channel with agitoxin-2 (provided by K. J. Swartz), have been subtracted for all of the Kv channel currents shown. […]. After the addition of the toxin to the recording chamber, the equilibration between the toxin and the channel was monitored using weak depolarizations elicited at 5- or 10-s (R1629A/L1630A mutant) intervals. Voltage-activation relationships were obtained by measuring tail currents for Kv channels or steady-state currents and calculating conductance for Nav channels, and a single Boltzmann function was fitted to the data according to I/Imax=[1c+cexp(−zF(Vc−cV1/2)/RT)]^−1, where I/Imax is the normalized tail-current amplitude, z is the equivalent charge, V1/2 is the half-activation voltage, F is Faraday's constant, R is the gas constant, and T is temperature in kelvin. For all channels, voltage-activation relationships were recorded in the absence and presence of toxin. The ratio of currents (I/I0) recorded in the presence (I) and absence (I0) of toxin was calculated for voltages typically ranging from −140 to 10 cmV, depending on the construct. […] The apparent equilibrium dissociation constant (apparent KD) for Kv channels was calculated according to KD=((1/(1c−cFu^1/4))c−c1)[toxin], assuming four independent toxin-binding sites per channel. Results are given as mean±SEM unless noted otherwise. Offline data analysis was performed using Clampfit 10™ (Molecular Devices), Origin 8.0™ (OriginLab), and Excel™ (Microsoft). […]
# [3] = system: rNav1.2a; conditions: cited from earlier work
# Sequence of rNav1.2a/Kv2.1 VSD IV paddle chimera (P04775 1605-1636 limits assumed, stated change not applied): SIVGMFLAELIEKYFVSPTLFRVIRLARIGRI
Molecule,effect on VSD IV chimera voltage-activation relationship ([1]; 1 μM toxin),concentration required to begin inhibiting the chimera [2],"depolarizing shift in V1/2 ([2]; 1 μM toxin, Boltzmann fit, n=3)","V1/2 in the presence of toxin ([2]; 1 μM toxin, control 33±2 mV)",effect on WT rNav1.2a gating ([3]; 100 nM toxin),"Kd ([1]; 100 nM AaHII, n=3, mean±SEM, read-out: apparent KD)",K+ current inhibition of VSD IV chimera ([1]; 100 nM toxin),interaction with VSD II paddle chimera [2],"Kd ([3]; WT rNav1.2a, read-out: affinity of the toxin for WT rNav1.2a)"
CssIV: β-scorpion toxin from Centruroides suffusus suffusus (protein) KEGYLVNSYTGCKFECFKLGDNDYCLRECRQQYGKGSGGYCYAFGCWCTHLYEQAVVWPLPNKTCN,does not influence,1 µM,~14 mV,47±1 mV,clearly influences WT rNav1.2a gating,–,–,–,–
AaHII: Nav channel-selective α-scorpion toxin from Androctonus australis hector; model toxin (protein) VKDGYIVDDVNCTYFCGRNAYCNEECTKLKGESGYCQWASPYGNACYCYKLPDHVRTKGPGRCH,–,–,–,–,–,1010 nM,influenced less; also recorded: influenced to a much lesser extent,no interaction was observed,~5 nM
